Data: PMC7859239

What was measured:
[1] = target: Schizosaccharomyces pombe RNA polymerase I (Schizosaccharomyces pombe (endogenous in S. pombe)) (UniProt P15398); experiment: cryo-EM structure; dimer particles in the 'monomer' dataset of BS3-crosslinked Sp Pol I after SEC (5 mM HEPES pH 7.8, 1 mM MgCl2, 10 µM ZnCl2, 150 mM KCl, 5 mM DTT); C2 symmetry imposed; 4.5 Å; model by placing two monomers and rigid body fitting of subdomains
[2] = target: Schizosaccharomyces pombe RNA polymerase I (Schizosaccharomyces pombe (endogenous in S. pombe)) (UniProt P15398); experiment: negative-stain EM with 2D classification; peak fraction of the analytical SEC in low-salt buffer S300 (300 mM KAc); uranyl formate; 24,462 particles classified into 16 classes
[3] = target: Schizosaccharomyces pombe RNA polymerase I (Schizosaccharomyces pombe (endogenous in S. pombe)) (UniProt P15398); experiment: negative-stain EM with 2D classification; peak fraction of the analytical SEC in high-salt buffer S1500 (1.5 M KAc); uranyl formate; 20,054 particles classified into 16 classes

stoichiometry N [1]: 2 | percent of particles in a dimeric state [2]: < 2% | percent of Pol I molecules in a dimeric state [3]: 49% | percent of identified particles in a dimeric state [3]: 32%
Substance: Schizosaccharomyces pombe RNA polymerase I, P15398 1-1689; Q9P7X8 1-1174; O94616 1-348; Q09177 1-125; O43036 1-173; Q9P7P1 1-147; O94703 1-119; Q09191 1-210; P36595 1-142; Q92399 1-125; O13877 1-71; P48011 1-63; O14086 1-425; Q9USZ4 1-251
